# Laboratory results published in the RNAGym collection of RNA variant scans (doi:10.1093/molbev/msab373).
# B1: Azoarcus group I ribozyme (parent)
# chain: GUGCCUUGCGCCGGGAAACCACGCAAGGGAUGGUGUCAAAUUCGGCGAAACCUAAGCGCCCGCCCGGGCGUAUGGCAACGCCGAGCCAAGCUUCGGCGCCUGCGCCGAUGAAGGUGUAGAGACUAGACGGCACCCACCUAAGGCAAACGCUAUGGUGAAGGCAUAGUCCAGGGAGUGGCGAAAGUCACACAAACCGG
# Variants of: B1
# Assay: reverse-splicing fitness (ratio to wild type); higher = more active; in vitro selection; Mg2+ level not given
# In short: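 An in vitro group I ribozyme library with randomized positions was T7-transcribed and gel-purified. In triplicate, 10 pmol RNA in EPPS pH 7.5 was reacted with 50 pmoles of a 30-nt RNA substrate for 1 h at 37 °C across several added MgCl2 levels (1–48 mM), then stopped with EDTA. Products were reverse transcribed from a substrate-complementary primer, PCR-amplified and sequenced (HiSeq 4000). Fitness is a variant's read proportion after selection over that before, normalised to wild type.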
row,Variant,reverse-splicing fitness
1,A111C A120G A145C C150G U176G,0.00301
2,A111C A120G A145C C150G U176C,0.0168
3,A111C A120G A145C C150G U176A,0.0112
4,A111C A120G A145G U176C,0.0456
5,A111C A120G A145G U176A,0.0379
6,A111C A120G A145G U176G,0.00588
7,A111C A120G C150G C169U,0.0177
8,A111C A120G C150G C169A,0.0136
9,A111C A120G C150G C169G,0.0183
10,A111C A120G A145U C150U C169A U176G,0.00499
11,A111C A120G A145U C150U C169A U176C,0.0175
12,A111C A120G A145U C150U C169A U176A,0.0161
13,A111C A120G A145C C150A,0.0117
14,A111C A120G A145C C150U,0.0418
15,A111C A120G A145C C150G,0.0219
16,A111C A120G A145U C150A C169U,0.018
17,A111C A120G A145U C150A C169A,0.0145
18,A111C A120G A145U C150A C169G,0.0221
19,A111C A120G A145G C150U U176C,0.04
20,A111C A120G A145G C150U U176G,0.00709
21,A111C A120G A145G C150U U176A,0.0273
22,A111C A120G A145G C150G C169G,0.0248
23,A111C A120G A145G C150G C169U,0.0264
24,A111C A120G A145G C150G C169A,0.0166

row,Variant,reverse-splicing fitness
1,A111C A120G C150G,0.0159
2,A111C A120G C150U,0.0912
3,A111C A120G C150A,0.0211
4,A111C A120G A145U C150A C169U U176A,0.0198
5,A111C A120G A145U C150A C169U U176G,0.0045
6,A111C A120G A145U C150A C169U U176C,0.0173
7,A111C A120C C150A C169G U176G,0.00744
8,A111C A120C C150A C169G U176C,0.021
9,A111C A120C C150A C169G U176A,0.0198
10,A111C A120G C150G C169A U176C,0.0109
11,A111C A120G C150G C169A U176A,0.00971
12,A111C A120G C150G C169A U176G,0.00481
13,A111C A120C C150G U176G,0.00388
14,A111C A120C C150G U176A,0.0144
15,A111C A120C C150G U176C,0.0288
16,A111C A120C C150G,0.0496
17,A111C A120C C150U,0.362
18,A111C A120C C150A,0.0821
19,A111C A120C A145U C169G U176C,0.0123
20,A111C A120C A145U C169G U176A,0.0103
21,A111C A120C A145U C169G U176G,0.00445
22,A111C A120G A145C C150G C169U,0.0248
23,A111C A120G A145C C150G C169A,0.015
24,A111C A120G A145C C150G C169G,0.0238

row,Variant,reverse-splicing fitness
1,A111C A120G A145C C150U C169G,0.0492
2,A111C A120G A145C C150U C169A,0.0284
3,A111C A120G A145C C150U C169U,0.0398
4,A111C A120C C169U U176C,0.0446
5,A111C A120C C169U U176A,0.031
6,A111C A120C C169U U176G,0.0068
7,A111C A120G A145G C150U C169U U176G,0.00498
8,A111C A120G A145G C150U C169U U176A,0.0338
9,A111C A120G A145G C150U C169U U176C,0.0446
10,A111C A120G C150A C169A U176A,0.0174
11,A111C A120G C150A C169A U176C,0.023
12,A111C A120G C150A C169A U176G,0.00594
13,A111C A120C A145U C169A U176G,0.00762
14,A111C A120C A145U C169A U176C,0.0102
15,A111C A120C A145U C169A U176A,0.0135
16,A111C A120G C150U C169G U176G,0.00581
17,A111C A120G C150U C169G U176C,0.0349
18,A111C A120G C150U C169G U176A,0.0233
19,A111C A120G A145G C150A C169G U176C,0.0342
20,A111C A120G A145G C150A C169G U176A,0.0195
21,A111C A120G A145G C150A C169G U176G,0.00523
22,A111C A120G A145U C169A,0.128
23,A111C A120G A145U C169U,0.174
24,A111C A120G A145U C169G,0.203

row,Variant,reverse-splicing fitness
1,A111C A120G A145U C150G C169A U176C,0.0112
2,A111C A120G A145U C150G C169A U176G,0.00487
3,A111C A120G A145U C150G C169A U176A,0.0089
4,A111C A120G A145G C150G C169A U176A,0.0128
5,A111C A120G A145G C150G C169A U176G,0.00703
6,A111C A120G A145G C150G C169A U176C,0.0131
7,A111C A120C A145U C169G,0.00945
8,A111C A120C A145U C169U,0.189
9,A111C A120G A145U C169U U176G,0.00716
10,A111C A120G A145U C169U U176C,0.0424
11,A111C A120G A145U C169U U176A,0.042
12,A111C A120G A145U C169G U176G,0.00448
13,A111C A120G A145U C169G U176A,0.0277
14,A111C A120G A145U C169G U176C,0.0343
15,A111C A120G A145G C150G C169U U176A,0.0115
16,A111C A120G A145G C150G C169U U176G,0.00619
17,A111C A120G A145G C150G C169U U176C,0.0161
18,A111C A120G A145G C169U U176G,0.00448
19,A111C A120G A145G C169U U176A,0.0413
20,A111C A120G A145G C169U U176C,0.045
21,A111C A120G A145G C150U C169G U176A,0.0243
22,A111C A120G A145G C150U C169G U176C,0.035
23,A111C A120G A145G C150U C169G U176G,0.00471
24,A111C A120G A145U C150G U176G,0.00305

row,Variant,reverse-splicing fitness
1,A111C A120G A145U C150G U176A,0.00983
2,A111C A120G A145U C150G U176C,0.0169
3,A111C A120G C169U U176A,0.0433
4,A111C A120G C169U U176G,0.00657
5,A111C A120G C169U U176C,0.0498
6,A111C A120G C150U U176A,0.0245
7,A111C A120G C150U U176C,0.0344
8,A111C A120G C150U U176G,0.00599
9,A111C A120G A145C C169U U176C,0.0394
10,A111C A120G A145C C169U U176A,0.0395
11,A111C A120G A145C C169U U176G,0.00492
12,A111C A120G A145U C150A C169A U176C,0.011
13,A111C A120G A145U C150A C169A U176G,0.00497
14,A111C A120G A145U C150A C169A U176A,0.0109
15,A111C A120G C150A U176A,0.0175
16,A111C A120G C150A U176G,0.00592
17,A111C A120G C150A U176C,0.0209
18,A111C A120G C169A,0.131
19,A111C A120G C169U,0.17
20,A111C A120G C169G,0.22
21,A111C A120G A145G C150U C169A U176C,0.0222
22,A111C A120G A145G C150U C169A U176A,0.0192
23,A111C A120G A145G C150U C169A U176G,0.00548
24,A111C A120G C150U C169U U176C,0.0371

row,Variant,reverse-splicing fitness
1,A111C A120G C150U C169U U176G,0.00549
2,A111C A120G C150U C169U U176A,0.0337
3,A111C A120C C150A C169A U176G,0.00693
4,A111C A120C C150A C169A U176A,0.0162
5,A111C A120C C150A C169A U176C,0.0141
6,A111C A120G A145G C150A C169U U176A,0.0227
7,A111C A120G A145G C150A C169U U176C,0.0241
8,A111C A120G A145G C150A C169U U176G,0.00466
9,A111C A120G A145U C150U C169U,0.106
10,A111C A120G A145U C150U C169G,0.133
11,A111C A120G A145U C150U C169A,0.0731
12,A111C A120C C150U U176G,0.0275
13,A111C A120C C150U U176C,0.153
14,A111C A120C C150U U176A,0.128
15,A111C A120G A145U C150U,0.113
16,A111C A120G A145U C150A,0.0185
17,A111C A120G A145U C150G,0.0193
18,A111C A120G A145U C150U C169G U176G,0.00542
19,A111C A120G A145U C150U C169G U176C,0.0326
20,A111C A120G A145U C150U C169G U176A,0.0211
21,A111C A120C C150G C169G U176C,0.00683
22,A111C A120C C150G C169G U176G,0.00564
23,A111C A120C C150G C169G U176A,0.00796
24,A111C A120G C150A C169U,0.0203

row,Variant,reverse-splicing fitness
1,A111C A120G C150A C169A,0.0171
2,A111C A120G C150A C169G,0.0242
3,A111C A120G A145G C150U C169G,0.167
4,A111C A120G A145G C150U C169U,0.139
5,A111C A120G A145G C150U C169A,0.0989
6,A111C A120G A145U C169A U176A,0.0166
7,A111C A120G A145U C169A U176C,0.0182
8,A111C A120G A145U C169A U176G,0.0051
9,A111C A120C C150A C169U U176A,0.0208
10,A111C A120C C150A C169U U176C,0.0224
11,A111C A120C C150A C169U U176G,0.00635
12,A111C A120G A145U C150G C169A,0.0153
13,A111C A120G A145U C150G C169G,0.0203
14,A111C A120G A145U C150G C169U,0.0209
15,A111C A120G A145U C150A C169G U176A,0.0123
16,A111C A120G A145U C150A C169G U176C,0.0176
17,A111C A120G A145U C150A C169G U176G,0.00467
18,A111C A120G,0.185
19,A111C A120U,0.659
20,A111C A120G A145C C150A C169U U176G,0.00392
21,A111C A120G A145C C150A C169U U176A,0.0178
22,A111C A120G A145C C150A C169U U176C,0.00924
23,A111C A120C C150G C169A U176C,0.00966
